Target: HAdV-C5 virion (human adenovirus C5 (HAdV-C5), UniProt P04133 1-952; P12538 1-571; P11818 1-581, whole virion; only the major capsid proteins listed, minor/core proteins and DNA not named)
Assay: SPR; Biacore T200; CD46 or CAR amine-coupled to a CM5 chip (2,390-2,640 RU CD46, 2,380-2,870 RU CAR); whole virions as analyte, twofold series 50-12.5 µg/mL, 120 s at 30 µL/min; 25°C, HBS-EP+ (10 mM HEPES, 150 mM NaCl, 3 mM EDTA, 0.005% P20, pH 7.4); performed once
Settings: both partners purified

B1: coxsackievirus and adenovirus receptor (CAR) (receptor)
chain: LSITTPEEMIEKAKGETAYLPCKFTLSPEDQGPLDIEWLISPADNQKVDQVIILYSGDKIYDDYYPDLKGRVHFTSNDLKSGDASINVTNLQLSDIGTYQCKVKKAPGVANKKIHLVVLVKPSGARCYVDGSEEIGSDFKIKCEPKEGSLPLQYEWQKLSDSQKMPTSWLAEMTSSVISVKNASSEYSGTYSCTVRNRVGSDQCLLRLNVVPPSNKAGLIAGAIIGTLLALALIGLIIFCCRKKRREEKYEKEVHHDIREDVPPPKSRTSTARSYIGSNHSSLGSMSPSNMEGYSKTQYNQVPSEDFERTPQSPTLPPAKVAAPNLSRMGAIPVMIPAQSKDGSIV
notes: coxsackievirus and adenovirus receptor (CAR), coupled to the CM5 sensor chip; also called CXADR
Kd: 1.1 pM

Reference: paper PMC12607895, “CD46 is a cellular receptor for species D human adenovirus” (mBio, 2025)
